{
  "source": "paper doi:10.1101/754457",
  "key": {"[1]": {"target": "Mto2-134A136A (full-length, recombinant) (S. pombe) (UniProt Q9USP7)", "experiment": "SEC-MALS"}, "[2]": {"target": "Mto2-134AAA (full-length, recombinant) (S. pombe) (UniProt Q9USP7)", "experiment": "SEC-MALS"}},
  "data": [
    {"substance": "Mto2-134A136A (full-length, recombinant) (from UniProt Q9USP7 1-397) (natural protein)", "values": [
      {"measurement": "stoichiometry N", "setting": "[1]", "result": 2}
    ]},
    {"substance": "Mto2-134AAA (full-length, recombinant) (from UniProt Q9USP7 1-397) (natural protein)", "values": [
      {"measurement": "stoichiometry N", "setting": "[2]", "result": 2}
    ]}
  ]
}
